Tests used:
GST-HbCBF1 [1] = biological target: T1, GST-HbCBF1 (Hevea brasiliensis, UniProt Q4KP31 1-231); experiment: EMSA; 10 mM Tris-HCl pH 7.5, 100 mM KCl, 10% glycerol, 1 mM DTT, 0.1% NP-40, 1 mM spermidine, 0.5 ug fish sperm DNA, 4 ug protein, 1 ng probe, 25 C; conditions: protein: recombinant; tags: N-terminal GST (pGEX-6p-1); label: 5'-digoxigenin (hot probe); blunt
GST-HbCBF1 [2] = biological target: T1, GST-HbCBF1; experiment: competition EMSA; 125-fold molar excess cold competitor vs COR15a probe; 10 mM Tris-HCl pH 7.5, 100 mM KCl, 10% glycerol, 1 mM DTT, 0.1% NP-40, 1 mM spermidine, 0.5 ug fish sperm DNA, 4 ug protein, 1 ng probe, 25 C; conditions: protein: recombinant; tags: N-terminal GST (pGEX-6p-1); blunt

T1 sequence (Q4KP31 entry or part of it): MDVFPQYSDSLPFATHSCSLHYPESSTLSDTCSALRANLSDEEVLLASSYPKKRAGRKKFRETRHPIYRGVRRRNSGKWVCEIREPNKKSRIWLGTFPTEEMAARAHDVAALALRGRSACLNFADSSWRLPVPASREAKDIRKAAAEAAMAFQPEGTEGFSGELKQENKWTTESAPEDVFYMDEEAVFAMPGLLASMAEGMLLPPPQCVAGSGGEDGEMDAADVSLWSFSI

Row | Binder | binding result (GST-HbCBF1 [1]) | binding result (GST-HbCBF1 [2])
1 | COR15a (dsDNA) DNA 1: TTTCATGGCCGACCTGCTTTTTT DNA 2: AAAAAAGCAGGTCGGCCATGAAA | binds | –
2 | COR15b (dsDNA) DNA 1: CTGATGGCCGACCTCTTTTTT DNA 2: AAAAAAGAGGTCGGCCATCAG | – | binds
3 | RD29a (dsDNA) DNA 1: ATATACTACCGACATGAGTTCT DNA 2: AGAACTCATGTCGGTAGTATAT | – | binds
4 | RD29b (dsDNA) DNA 1: CTACCGACATGAGTTCCAAAAAA DNA 2: TTTTTTGGAACTCATGTCGGTAG | – | binds
